# Values of other authors in US20060275806.
# Like-named read-outs stand apart in the source and are kept apart here.
# Assays:
# [1] = system: MDBP2 (methylated DNA binding protein 2); conditions: method not given
# MLL MT domain = conditions: method not given
substance,measurement,setting,value
DNA with single fully methylated CpG,Kd,"[1]; 5mC at CpG, both strands, error 0.08 nM",2.7 nM
non-specific DNA,Kd,[1]; error 46.8 nM,189 nM
unmethylated CpG DNA,Kd,MLL MT domain,33 nM
